# Experimental data from patent US20180104312A1 (Eli Lilly, published 2018).
# Numbering of substitutions follows the chain as printed. Like-named read-outs stand apart in the source and are kept apart here. No end group written: not given here.
# B1: Example 6 (peptide)
# peptide: YXQGTFTSDYSKYLDXKKAXEFVAWLLEE
# modifications: Aib at positions 2 and 16; K20 epsilon-amino group conjugated with ([2-(2-Amino-ethoxy)-ethoxy]-acetyl)2-(γGlu)1-CO-(CH2)16-CO2H; C-terminal acid
# B2: Example 1 (peptide)
# peptide: YXQGTFTSDYSKYLDXKKAXEFVEWLLETGPSSGAPPPS
# modifications: Aib at positions 2 and 16; K20 epsilon-amino group conjugated with ([2-(2-Amino-ethoxy)-ethoxy]-acetyl)2-(γGlu)2-CO-(CH2)16-CO2H; C-terminal primary amide
# B3: Example 2 (peptide)
# peptide: B2 peptide
# modifications: Aib at positions 2 and 16; K20 epsilon-amino group conjugated with ([2-(2-Amino-ethoxy)-ethoxy]-acetyl)2-(γGlu)2-CO-(CH2)18-CO2H; C-terminal primary amide
# B4: Example 3 (peptide)
# peptide: B2 peptide with T7L
# modifications: Aib at positions 2 and 16; K20 epsilon-amino group conjugated with ([2-(2-Amino-ethoxy)-ethoxy]-acetyl)2-(γGlu)2-CO-(CH2)16-CO2H; C-terminal primary amide
# B5: Example 7 (peptide)
# peptide: YXQGTFTSDYSKYLDXKKAXEFVAWLLEE
# modifications: Aib at positions 2 and 16; K20 epsilon-amino group conjugated with ([2-(2-Amino-ethoxy)-ethoxy]-acetyl)2-(γGlu)1-CO-(CH2)18-CO2H; C-terminal acid
# Experiments:
# [1] = molecular target: T1, human Glucagon-Like Peptide-1 receptor (human, UniProt P43220 24-463); assay: cell-based or functional assay
# Target sequence in this assay (P43220 24-463): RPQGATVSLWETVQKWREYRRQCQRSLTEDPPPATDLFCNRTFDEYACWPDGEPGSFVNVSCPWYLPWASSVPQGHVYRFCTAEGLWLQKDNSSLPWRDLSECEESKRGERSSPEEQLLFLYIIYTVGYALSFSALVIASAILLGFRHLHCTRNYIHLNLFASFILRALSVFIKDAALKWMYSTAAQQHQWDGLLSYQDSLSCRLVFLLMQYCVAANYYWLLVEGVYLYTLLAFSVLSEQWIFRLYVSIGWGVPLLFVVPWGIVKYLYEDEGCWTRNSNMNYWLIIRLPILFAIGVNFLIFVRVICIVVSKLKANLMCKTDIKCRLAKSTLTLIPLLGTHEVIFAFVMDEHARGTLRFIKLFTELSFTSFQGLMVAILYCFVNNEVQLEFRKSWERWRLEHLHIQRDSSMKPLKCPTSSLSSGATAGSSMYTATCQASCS
# [2] = molecular target: T2, recombinant human glucagon receptor (human, UniProt P47871 26-477); assay: cell-based or functional assay
# [3] = molecular target: T3, human glucose-dependent insulinotropic polypeptide receptor (human) (UniProt P48546); assay: cell-based or functional assay
# T3 sequence (looked up): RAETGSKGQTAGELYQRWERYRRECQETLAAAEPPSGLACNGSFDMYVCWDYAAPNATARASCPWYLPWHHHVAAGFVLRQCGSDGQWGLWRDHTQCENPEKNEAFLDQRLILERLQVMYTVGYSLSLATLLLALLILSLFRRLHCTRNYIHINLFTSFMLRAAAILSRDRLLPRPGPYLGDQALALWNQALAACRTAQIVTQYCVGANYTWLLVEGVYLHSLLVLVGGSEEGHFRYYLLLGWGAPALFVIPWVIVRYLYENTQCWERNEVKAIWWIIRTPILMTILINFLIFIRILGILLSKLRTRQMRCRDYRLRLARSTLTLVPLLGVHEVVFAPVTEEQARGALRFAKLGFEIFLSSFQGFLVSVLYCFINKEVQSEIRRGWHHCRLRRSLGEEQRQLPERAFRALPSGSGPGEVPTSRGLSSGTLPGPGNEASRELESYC
# [4] = molecular target: T2, recombinant human glucagon receptor; assay: cell-based or functional assay; remark: listed apart in the source
# [5] = molecular target: T1, human Glucagon-Like Peptide-1 receptor; assay: cell-based or functional assay; remark: listed apart in the source
# [6] = molecular target: T4, human glucose-dependent insulinotropic polypeptide receptor (human, UniProt P48546 22-466); assay: cell-based or functional assay
# T4 sequence (looked up): T3 sequence (looked up)
# [7] = molecular target: T2, recombinant human glucagon receptor; assay: I-125-Gcg competition SPA, membranes of 293HEK cells expressing hGcg-R
# Experimental: (§1) The specific activity is 2200 Ci/mmol. KD determination is performed by homologous competition or saturation binding analysis.
# (§2) The receptor binding assay is carried out using a Scintillation Proximity Assay (SPA) format with wheat germ agglutinin (WGA) beads (Perkin Elmer). The binding buffer contains 25 mM 4-(2-hydroxyethyl)-1-piperazineethanesulfonic acid (HEPES), pH 7.4, 2.5 mM CaCl₂, 1 mM MgCl₂, 0.1% (w/v) bacitracin (Affymetrix), 0.003% (w/v) Polyoxyethylenesorbitan monolaurate (TWEEN®-20) and Roche Complete™ Protease Inhibitors without EDTA.
# mouse glucagon receptor = molecular target: T5, mouse glucagon receptor (mouse, UniProt Q61606 27-485); assay: I-125-Gcg competition SPA, membranes of 293HEK cells expressing mGcg-R
# T5 construct: whole, on cells; Used as membranes of a clonal 293HEK line; also called mGcg-R; mGcgR
# Experimental: as §1, §2
# rat glucagon receptor = molecular target: T6, rat glucagon receptor (rat, UniProt P30082 27-485); assay: I-125-Gcg competition SPA, membranes of 293HEK cells expressing rGcg-R
# T6 construct: whole, on cells; Used as membranes of transiently transfected 293HEK cells; also called rGcg-R; rat Gcg-R
# Experimental: as §1, §2
# [8] = molecular target: T1, human Glucagon-Like Peptide-1 receptor; assay: cell-based or functional assay; remark: listed apart in the source
# [9] = molecular target: T4, human glucose-dependent insulinotropic …; assay: cell-based or functional assay; remark: listed apart in the source
# [10] = molecular target: T2, recombinant human glucagon receptor; assay: cell-based or functional assay; remark: listed apart in the source
# [11] = molecular target: T1, human Glucagon-Like Peptide-1 receptor; assay: cell-based or functional assay; remark: listed apart in the source
# [12] = molecular target: T4, human glucose-dependent insulinotropic …; assay: cell-based or functional assay; remark: listed apart in the source
# [13] = molecular target: T2, recombinant human glucagon receptor; assay: cell-based or functional assay; remark: listed apart in the source
# T6 sequence (P30082 27-485): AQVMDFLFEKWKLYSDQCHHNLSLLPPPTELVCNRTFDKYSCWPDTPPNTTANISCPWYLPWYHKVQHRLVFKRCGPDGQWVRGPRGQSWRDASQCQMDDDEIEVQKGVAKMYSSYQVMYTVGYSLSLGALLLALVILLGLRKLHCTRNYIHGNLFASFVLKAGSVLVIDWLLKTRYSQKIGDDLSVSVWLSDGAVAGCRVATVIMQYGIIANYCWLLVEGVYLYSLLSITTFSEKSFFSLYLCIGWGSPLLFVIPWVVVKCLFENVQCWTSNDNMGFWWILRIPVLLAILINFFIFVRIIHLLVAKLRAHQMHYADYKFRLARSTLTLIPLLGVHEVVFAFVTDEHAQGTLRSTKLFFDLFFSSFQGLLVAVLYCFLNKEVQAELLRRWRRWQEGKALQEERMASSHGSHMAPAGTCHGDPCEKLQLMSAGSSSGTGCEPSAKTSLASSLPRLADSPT
# T5 sequence (Q61606 27-485): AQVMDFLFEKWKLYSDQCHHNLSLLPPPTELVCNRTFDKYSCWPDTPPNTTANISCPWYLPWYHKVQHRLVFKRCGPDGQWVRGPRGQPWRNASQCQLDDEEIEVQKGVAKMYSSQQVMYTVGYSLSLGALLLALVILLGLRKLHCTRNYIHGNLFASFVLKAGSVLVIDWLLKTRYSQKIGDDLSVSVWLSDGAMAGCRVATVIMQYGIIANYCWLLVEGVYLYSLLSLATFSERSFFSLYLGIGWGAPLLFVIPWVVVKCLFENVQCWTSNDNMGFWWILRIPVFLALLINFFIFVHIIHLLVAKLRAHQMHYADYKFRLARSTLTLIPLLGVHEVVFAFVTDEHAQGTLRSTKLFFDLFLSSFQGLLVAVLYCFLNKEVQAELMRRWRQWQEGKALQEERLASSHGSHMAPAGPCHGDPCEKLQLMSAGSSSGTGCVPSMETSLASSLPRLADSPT
# T2 sequence (P47871 26-477): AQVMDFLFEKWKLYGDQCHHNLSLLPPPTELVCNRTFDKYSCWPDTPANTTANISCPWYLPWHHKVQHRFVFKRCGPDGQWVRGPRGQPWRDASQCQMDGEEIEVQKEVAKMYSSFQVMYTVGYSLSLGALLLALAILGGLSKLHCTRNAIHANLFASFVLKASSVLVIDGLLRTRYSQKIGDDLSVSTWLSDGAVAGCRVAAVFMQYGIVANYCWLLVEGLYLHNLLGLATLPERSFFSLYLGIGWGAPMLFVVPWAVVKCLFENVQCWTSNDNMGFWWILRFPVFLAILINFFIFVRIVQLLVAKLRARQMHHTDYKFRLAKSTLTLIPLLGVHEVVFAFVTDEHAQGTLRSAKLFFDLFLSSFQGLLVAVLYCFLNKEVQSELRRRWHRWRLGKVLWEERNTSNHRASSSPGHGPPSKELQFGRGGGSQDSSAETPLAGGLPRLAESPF
molecule,measurement,setting,value
dulaglutide (Fc fusion),"EC50, cAMP, GLP-1 Receptor Assay; sample C6.5-4 C.-4 wk",[1],0.37 nM
same,"EC50, cAMP, GLP-1 Receptor Assay; sample C6.5-40 C.-4 wk",[1],0.31 nM
same,"EC50, cAMP, GLP-1 Receptor Assay; sample C6.5MT-4 C.-4 wk",[1],0.4 nM
same,"EC50, cAMP, GLP-1 Receptor Assay; sample C6.5MT-40 C.-4 wk",[1],0.29 nM
same,"EC50, cAMP, Gcg Receptor Assay; sample C6.5-4 C.-4 wk",[2],51.9 nM
same,"EC50, cAMP, Gcg Receptor Assay; sample C6.5-40 C.-4 wk",[2],> 100 nM
same,"EC50, cAMP, Gcg Receptor Assay; sample C6.5MT-4 C.-4 wk",[2],54 nM
same,"EC50, cAMP, Gcg Receptor Assay; sample C6.5MT-40 C.-4 wk",[2],> 100 nM
same,"EC50, cAMP, GIP Receptor Assay; sample C6.5-4 C.-4 wk",[3],> 100 nM
same,"EC50, cAMP, GIP Receptor Assay; sample C6.5-40 C.-4 wk",[3],> 100 nM
same,"EC50, cAMP, GIP Receptor Assay; sample C6.5MT-4 C.-4 wk",[3],> 100 nM
same,"EC50, cAMP, GIP Receptor Assay; sample C6.5MT-40 C.-4 wk",[3],> 100 nM
YAEGTFISDYSIAMDKIHQQDFVNWLLAQKGKKNDWKHNITQ-NH2 [human GIP(1-42)NH2],"EC50, intracellular cAMP (HTRF)",[4],> 10 nM
B1,"EC50, intracellular cAMP (HTRF)",[5],> 100 nM
same,"EC50, intracellular cAMP (HTRF)",[6],> 500 nM
same,"EC50, intracellular cAMP (HTRF)",[4],0.00413 nM
same,Ki,[7],0.316 nM
same,Ki,mouse glucagon receptor,0.123 nM
same,Ki,rat glucagon receptor,0.98 nM
B2,"EC50, intracellular cAMP (HTRF)",[5],73.9 nM
same,"EC50, intracellular cAMP (HTRF)",[6],> 500 nM
same,"EC50, intracellular cAMP (HTRF)",[4],0.00436 nM
same,"EC50, cAMP, GLP-1 Receptor Assay; sample T7-4 C.-4 wk",[8],> 100 nM
same,"EC50, cAMP, GLP-1 Receptor Assay; sample T7-40 C.-4 wk",[8],57.5 nM
same,"EC50, cAMP, GLP-1 Receptor Assay; sample T7m-4 C.-4 wk",[8],43.8 nM
same,"EC50, cAMP, GLP-1 Receptor Assay; sample T7m-40 C.-4 wk",[8],49.7 nM
same,"EC50, cAMP, GIP Receptor Assay; sample T7-4 C.-4 wk",[9],> 100 nM
same,"EC50, cAMP, GIP Receptor Assay; sample T7-40 C.-4 wk",[9],> 100 nM
same,"EC50, cAMP, GIP Receptor Assay; sample T7m-4 C.-4 wk",[9],> 100 nM
same,"EC50, cAMP, GIP Receptor Assay; sample T7m-40 C.-4 wk",[9],> 100 nM
same,"EC50, cAMP, Gcg Receptor Assay; sample T7-4 C.-4 wk",[10],0.0203 nM
same,"EC50, cAMP, Gcg Receptor Assay; sample T7-40 C.-4 wk",[10],0.0217 nM
same,"EC50, cAMP, Gcg Receptor Assay; sample T7m-4 C.-4 wk",[10],0.023 nM
same,"EC50, cAMP, Gcg Receptor Assay; sample T7m-40 C.-4 wk",[10],0.0194 nM
same,"EC50, cAMP, GLP-1 Receptor Assay; sample C6.5-4 C.-4 wk",[11],41.6 nM
same,"EC50, cAMP, GLP-1 Receptor Assay; sample C6.5-40 C.-4 wk",[11],54.6 nM
same,"EC50, cAMP, GLP-1 Receptor Assay; sample C6.5MT-4 C.-4 wk",[11],55.6 nM
same,"EC50, cAMP, GLP-1 Receptor Assay; sample C6.5MT-40 C.-4 wk",[11],47.9 nM
same,"EC50, cAMP, GIP Receptor Assay; sample C6.5-4 C.-4 wk",[12],> 100 nM
same,"EC50, cAMP, GIP Receptor Assay; sample C6.5-40 C.-4 wk",[12],> 100 nM
same,"EC50, cAMP, GIP Receptor Assay; sample C6.5MT-4 C.-4 wk",[12],> 100 nM
same,"EC50, cAMP, GIP Receptor Assay; sample C6.5MT-40 C.-4 wk",[12],> 100 nM
same,"EC50, cAMP, Gcg Receptor Assay; sample C6.5-4 C.-4 wk",[13],0.0178 nM
same,"EC50, cAMP, Gcg Receptor Assay; sample C6.5-40 C.-4 wk",[13],0.0243 nM
same,"EC50, cAMP, Gcg Receptor Assay; sample C6.5MT-4 C.-4 wk",[13],0.0188 nM
same,"EC50, cAMP, Gcg Receptor Assay; sample C6.5MT-40 C.-4 wk",[13],0.0146 nM
same,Ki,[7],2.04 nM
same,Ki,mouse glucagon receptor,1.92 nM
same,Ki,rat glucagon receptor,9.78 nM
B3,"EC50, intracellular cAMP (HTRF)",[5],> 100 nM
same,"EC50, intracellular cAMP (HTRF)",[6],> 500 nM
same,"EC50, intracellular cAMP (HTRF)",[4],0.0112 nM
same,Ki,[7],1.07 nM
same,Ki,mouse glucagon receptor,0.991 nM
same,Ki,rat glucagon receptor,5.59 nM
B4,"EC50, intracellular cAMP (HTRF)",[5],> 100 nM
same,"EC50, intracellular cAMP (HTRF)",[6],> 500 nM
same,"EC50, intracellular cAMP (HTRF)",[4],0.0034 nM
same,"EC50, cAMP, GLP-1 Receptor Assay; sample T7-4 C.-4 wk",[8],> 100 nM
same,"EC50, cAMP, GLP-1 Receptor Assay; sample T7-40 C.-4 wk",[8],> 100 nM
same,"EC50, cAMP, GLP-1 Receptor Assay; sample T7m-4 C.-4 wk",[8],> 100 nM
same,"EC50, cAMP, GLP-1 Receptor Assay; sample T7m-40 C.-4 wk",[8],> 100 nM
same,"EC50, cAMP, GIP Receptor Assay; sample T7-4 C.-4 wk",[9],> 100 nM
same,"EC50, cAMP, GIP Receptor Assay; sample T7-40 C.-4 wk",[9],> 100 nM
same,"EC50, cAMP, GIP Receptor Assay; sample T7m-4 C.-4 wk",[9],> 100 nM
same,"EC50, cAMP, GIP Receptor Assay; sample T7m-40 C.-4 wk",[9],> 100 nM
same,"EC50, cAMP, Gcg Receptor Assay; sample T7-4 C.-4 wk",[10],0.0143 nM
same,"EC50, cAMP, Gcg Receptor Assay; sample T7-40 C.-4 wk",[10],0.0249 nM
same,"EC50, cAMP, Gcg Receptor Assay; sample T7m-4 C.-4 wk",[10],0.0211 nM
same,"EC50, cAMP, Gcg Receptor Assay; sample T7m-40 C.-4 wk",[10],0.0211 nM
same,"EC50, cAMP, GLP-1 Receptor Assay; sample C6.5-4 C.-4 wk",[11],> 100 nM
same,"EC50, cAMP, GLP-1 Receptor Assay; sample C6.5-40 C.-4 wk",[11],> 100 nM
same,"EC50, cAMP, GLP-1 Receptor Assay; sample C6.5MT-4 C.-4 wk",[11],> 100 nM
same,"EC50, cAMP, GLP-1 Receptor Assay; sample C6.5MT-40 C.-4 wk",[11],> 100 nM
same,"EC50, cAMP, GIP Receptor Assay; sample C6.5-4 C.-4 wk",[12],> 100 nM
same,"EC50, cAMP, GIP Receptor Assay; sample C6.5-40 C.-4 wk",[12],> 100 nM
same,"EC50, cAMP, GIP Receptor Assay; sample C6.5MT-4 C.-4 wk",[12],> 100 nM
same,"EC50, cAMP, GIP Receptor Assay; sample C6.5MT-40 C.-4 wk",[12],> 100 nM
same,"EC50, cAMP, Gcg Receptor Assay; sample C6.5-4 C.-4 wk",[13],0.0369 nM
same,"EC50, cAMP, Gcg Receptor Assay; sample C6.5-40 C.-4 wk",[13],0.0257 nM
same,"EC50, cAMP, Gcg Receptor Assay; sample C6.5MT-4 C.-4 wk",[13],0.0193 nM
same,"EC50, cAMP, Gcg Receptor Assay; sample C6.5MT-40 C.-4 wk",[13],0.0214 nM
same,Ki,[7],0.287 nM
same,Ki,mouse glucagon receptor,0.174 nM
same,Ki,rat glucagon receptor,1.56 nM
B5,"EC50, intracellular cAMP (HTRF)",[5],> 100 nM
same,"EC50, intracellular cAMP (HTRF)",[6],> 500 nM
same,"EC50, intracellular cAMP (HTRF)",[4],0.0166 nM
same,Ki,[7],0.673 nM
same,Ki,mouse glucagon receptor,0.753 nM
same,Ki,rat glucagon receptor,1.38 nM
